# Reference: patent publication EP4748858A1
# B1: AHP19485-VHH1 CAR (protein)
# chain: EVQLVESGGGLVQPGGSLRLSCAASERIFSIHAMGWYRQAPGKQRELVSSITIGGSTHYADSVKGRFTISRDNSKNTLYLQMNSLRAEDTAVYYCNSMLLAGTVGGSWGQGTLVTVSSGGGSGGGSGGGSGGGSEVQLVESGGGLVQPGGSLRLSCAASERIFSIHAMGWYRQAPGKQRELVSSITIGGSTHYADSVKGRFTISRDNSKNTLYLQMNSLRAEDTAVYYCNSMLLAGTVGGSWGQGTLVTVSSAAADYKDDDDKIEVMYPPPYLDNEKSNGTIIHVKGKHLCPSPLFPGPSKPFWVLVVVGGVLACYSLLVTVAFIIFWVRSKRSRLLHSDYMNMTPRRPGPTRKHYQPYAPPRDFAAYRSRVKFSRSADAPAYQQGQNQLYNELNLGRREEYDVLDKRRGRDPEMGGKPRRKNPQEGLYNELQKDKMAEAYSEIGMKGERRRGKGHDGLYQGLSTATKDTYDALHMQALPPR
# B2: AHP19509-VHH1 CAR (protein)
# chain: EVQLVESGGGLVQPGGSLRLSCAASGGTFNRYTMGWFRQAPGKEREFVSAISWSGGSTDYADSVKGRFTISRDNSKNTLYLQMNSLRAEDTAVYYCDTDRMPYRPVAAGILSWEANWGQGTLVTVSSGGGSGGGSGGGSGGGSEVQLVESGGGLVQPGGSLRLSCAASGGTFNRYTMGWFRQAPGKEREFVSAISWSGGSTDYADSVKGRFTISRDNSKNTLYLQMNSLRAEDTAVYYCDTDRMPYRPVAAGILSWEANWGQGTLVTVSSAAADYKDDDDKIEVMYPPPYLDNEKSNGTIIHVKGKHLCPSPLFPGPSKPFWVLVVVGGVLACYSLLVTVAFIIFWVRSKRSRLLHSDYMNMTPRRPGPTRKHYQPYAPPRDFAAYRSRVKFSRSADAPAYQQGQNQLYNELNLGRREEYDVLDKRRGRDPEMGGKPRRKNPQEGLYNELQKDKMAEAYSEIGMKGERRRGKGHDGLYQGLSTATKDTYDALHMQALPPR
# B3: AHP19484-VHH3 CAR (protein)
# chain: QVQLVESGGGLVKPGGSLRLSCAASGSSFHFAFMGWYRQAPGKQRELVADISPGNSTNYADPVKGRFTISRDNAKNSLYLQMNSLRAEDTAVYFCRDLRSWGAWGQGTLVTVSSGGGSGGGSGGGSGGGSQVQLVESGGGLVKPGGSLRLSCAASGSSFHFAFMGWYRQAPGKQRELVADISPGNSTNYADPVKGRFTISRDNAKNSLYLQMNSLRAEDTAVYFCRDLRSWGAWGQGTLVTVSSAAADYKDDDDKIEVMYPPPYLDNEKSNGTIIHVKGKHLCPSPLFPGPSKPFWVLVVVGGVLACYSLLVTVAFIIFWVRSKRSRLLHSDYMNMTPRRPGPTRKHYQPYAPPRDFAAYRSRVKFSRSADAPAYQQGQNQLYNELNLGRREEYDVLDKRRGRDPEMGGKPRRKNPQEGLYNELQKDKMAEAYSEIGMKGERRRGKGHDGLYQGLSTATKDTYDALHMQALPPR
# B4: VHH6 CAR (protein)
# chain: DVQLQESGGGLVQAGGSLRLSCAVSGYPYSSYCMGWFRQAPGKEREGVAAIDSDGRTRYADSVKGRFTISQDNAKNTLYLQMNRMKPEDTAMYYCAARFGPMGCVDLSTLSFGHWGQGTQVTVSITGGGGSGGGGSGGGGSGGGGSDVQLQESGGGLVQAGGSLRLSCAVSGYPYSSYCMGWFRQAPGKEREGVAAIDSDGRTRYADSVKGRFTISQDNAKNTLYLQMNRMKPEDTAMYYCAARFGPMGCVDLSTLSFGHWGQGTQVTVSITAAADYKDDDDKIEVMYPPPYLDNEKSNGTIIHVKGKHLCPSPLFPGPSKPFWVLVVVGGVLACYSLLVTVAFIIFWVRSKRSRLLHSDYMNMTPRRPGPTRKHYQPYAPPRDFAAYRSRVKFSRSADAPAYQQGQNQLYNELNLGRREEYDVLDKRRGRDPEMGGKPRRKNPQEGLYNELQKDKMAEAYSEIGMKGERRRGKGHDGLYQGLSTATKDTYDALHMQALPPR
# Biological target: PE-Labelled Human CD7 Protein, His Tag (ACROBiosystems, Cat# CD7-HP2E3) (human) (UniProt P09564)
# Assay: flow cytometry of CAR-T cells stained with PE-labelled human CD7 protein, His tag
# Chain of PE-Labelled Human CD7 Protein, His Tag (ACROBiosystems, Cat# CD7-HP2E3) (human) (P09564 26-180 limits assumed): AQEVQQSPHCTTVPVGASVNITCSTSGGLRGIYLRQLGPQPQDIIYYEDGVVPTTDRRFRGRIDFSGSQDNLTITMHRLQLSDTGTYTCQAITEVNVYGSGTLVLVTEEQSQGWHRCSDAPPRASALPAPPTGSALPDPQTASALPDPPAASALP
row,CAR expression% (cells stained by PE-labelled human CD7 protein) [%],Binder
1,99.7,B1
2,97.3,B2
3,92.8,B3
4,99.1,B4
